Positions count from the first letter of the chain named. Names and notes keep the numbering of the source.
Key:
SCP1 = target: T1, SCP1 (Homo sapiens, UniProt Q9GZU7); assay: Effect of RAP74 on CTD phosphatase activity of SCP1; format: biochemical; conditions: 7 pmol RAP74, 14.4 fmol RNAP IIO prepared by TFIIH
T1 construct: GST (N, cleaved yes); made in house
T1 sequence (Q9GZU7 1-260 isoform Q9GZU7-2): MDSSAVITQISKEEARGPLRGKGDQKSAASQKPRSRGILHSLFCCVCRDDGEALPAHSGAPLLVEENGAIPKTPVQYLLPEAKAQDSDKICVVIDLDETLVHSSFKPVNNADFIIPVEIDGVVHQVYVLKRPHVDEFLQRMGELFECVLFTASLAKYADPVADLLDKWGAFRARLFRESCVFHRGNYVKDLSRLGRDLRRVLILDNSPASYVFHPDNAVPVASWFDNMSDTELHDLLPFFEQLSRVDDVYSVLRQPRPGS
Experimental: Increasing amounts of the indicated forms of SCP1 and SCP2 were assayed in the presence of 14.4 fmol RNAP. IIO prepared by TFIIH. Reactions were carried out in the presence and in the absence of 7 pmol RAP74.
(§1) CTD phosphatase assays utilizing RNAP IIO and GST-CTDo as substrate were performed as described previously (32) with minor modifications. Reactions were performed in 20 μl of CTD phosphatase buffer (50 mM Tris-HCl, pH 7.9, 10 mM MgCl2, 20% glycerol, 0.025% Tween 80, 0.1 mM EDTA, 5 mM DTT) in the presence of 20 mM KCl. Each reaction contained specified amounts of GST-CTDo and/or RNAP IIO and was carried out in the presence of 7 pmol RAP74. Reactions were initiated by the addition of FCP1 or SCP1 and incubated at 30° C. for 30 minutes. Assays were terminated by the addition of 5× Laemmli buffer, and RNAP II subunits and GST-CTD were resolved on a 5% SDS-PAGE gel. The gel images were developed by autoradiography and scanned by Molecular Dynamics Image Scanner Storm 860 in the phosphor screen mode. Data were quantitatively analyzed by ImageQuant software.

GST-SCP1 = target: T2, GST-SCP1 (Homo sapiens, UniProt Q9GZU7); assay: Binding of RAP74 to GST-SCP1; conditions: not to GST
T2 construct: made in house
T2 sequence (Q9GZU7 1-261): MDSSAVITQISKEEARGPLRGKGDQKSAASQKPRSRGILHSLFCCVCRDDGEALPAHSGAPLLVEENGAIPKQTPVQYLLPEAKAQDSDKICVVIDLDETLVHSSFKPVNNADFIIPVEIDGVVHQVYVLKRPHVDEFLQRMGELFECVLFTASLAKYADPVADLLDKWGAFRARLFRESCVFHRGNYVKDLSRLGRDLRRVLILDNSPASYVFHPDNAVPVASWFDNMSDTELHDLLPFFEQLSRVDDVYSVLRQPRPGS
T2 sequence (P35269 1-517 partner): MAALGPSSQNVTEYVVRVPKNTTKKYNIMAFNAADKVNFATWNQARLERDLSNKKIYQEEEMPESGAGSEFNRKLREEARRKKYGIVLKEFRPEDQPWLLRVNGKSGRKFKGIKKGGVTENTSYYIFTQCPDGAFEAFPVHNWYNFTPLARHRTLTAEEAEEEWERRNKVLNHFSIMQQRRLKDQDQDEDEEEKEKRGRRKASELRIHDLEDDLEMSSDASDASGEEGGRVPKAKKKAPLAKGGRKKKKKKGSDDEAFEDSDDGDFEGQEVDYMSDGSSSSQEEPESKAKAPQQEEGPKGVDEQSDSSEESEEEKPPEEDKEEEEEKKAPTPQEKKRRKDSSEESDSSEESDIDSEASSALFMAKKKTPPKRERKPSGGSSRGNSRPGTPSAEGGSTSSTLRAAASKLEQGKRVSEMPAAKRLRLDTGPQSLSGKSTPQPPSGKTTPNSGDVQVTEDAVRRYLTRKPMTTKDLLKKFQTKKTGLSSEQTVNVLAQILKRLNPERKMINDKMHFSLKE

[1] = format: biochemical; conditions: PNθP as substrate
RNAP IIO = target: T3, RNAP IIO (Bos taurus, UniProt G3MZY8); assay: CTD phosphatase assay with RNAP IIO as substrate; format: biochemical, calf; conditions: substrates prepared by MAPK2/ERK2
T3 construct: Calf thymus RNAP IIA was purified; from tissue; host or cells: calf thymus
Experimental: FIGS. 2C and 2D show a CTD phosphatase assay of FCP1 and SCP1 on GST-CTDo and RNAP IIO prepared by MAPK2/ERK2. Increasing amounts of FCP1 or GST-SCP1 214 were assayed in the presence of 75 fmol GST-CTDo (lanes 1-6), 75 fmol RNAP IIO (lanes 7-12), or 75 fmol GST-CTDo and 75. fmol RNAP IIO (lanes 13-18). Both GST-CTDo and RNAP IIO substrates were prepared by the in vitro phosphorylation of CKII-labeled GST-CTDa or RNAP IIA by MAPK2/ERK2. All reactions were carried out in the presence of 7 pmol RAP74. CTD dephosphorylation of both GST-CTDo and RNAP IIO is shown by the increase in mobility of GST-CTDo to GST-CTDa and subunit IIo to IIa, respectively. The difference in the intensity of radiolabeled GST-CTDoand that of radiolabeled subunit IIo is not a reflection of a difference in the amount of substrates present, but of the higher efficiency with which CKII incorporates radiolabeled phosphates onto the most C-terminal serine of GST-CTDa compared to subunit. IIa.
Increasing amounts of GST-SCP1 214 were assayed in the presence of 3.7 fmol RNAP IIO prepared by CTDK1/CTDK2, TFIIH, P-TEFb, MAPK2/ERK2 and Cdc2 kinase. All reactions were carried out in-the presence of 7 pmol. RAP74. CTD dephosphorylation of RNAP IIO isozymes. by qSTSCP1 214 is shown by an increase in mobility of subunit IIo to that of IIa. The results are summarized in the graph showing the percent of RNAP IIO remaining as a function of increasing SCP1 concentrations.
Preparation and Purification of ^32P-RNAP IIO Isozymess and ^32P-GST-CTDo: Calf thymus RNAP IIA was purified by the method of Hodo and Blatti (30) with modifications as described by Kang and Dahmus (31). Specific isozymes of ^32p-labeled RNAP IIO were prepared by phosphorylation at the most C-terminal serine (CKII site) in the largest subunit of purified RNAP IIA with recombinant CKII and […], followed by CTD phosphorylation in the presence of 2 mM ATP with either purified CTDK1/CTDK2, TFIIH, P-TEFb, recombinant MAPK2/ERK2 or recombinant Cdc2 kinase. The RNAP IIO isozymes were individually purified over a DE53 column with a step elution of 500 mM KCl (28). Because only the most C-terminal serine is labeled with ^32p and lies outside. the consensus repeat, dephosphorylation by CTD phosphatase results in an electrophoretic mobility shift in SDS-PAGE of subunit IIo to the position of subunit IIa without the loss of label. Similarly, ^32P-labeled GST-CTDo was prepared from GST-CTDa by CKII followed by MAPK2/ERK2. GST-CTDo was purified over a glutathione-agarose column with a step elution of 15 mM glutathione.
as §1

[2] = system: ElALuc, pGL3-Luc and Gal4-TATA-Luc constructs; assay: Luciferase reporter assay, basal promoter activity; format: cell-based, human; conditions: ElALuc, pGL3-Luc and Gal4-TATA-Luc constructs
From the text: (§2) Gal4-DNA binding domain-SCP1 fusion protein expression plasmids-were cotransfected in HEK293 cells with a Gal 4-TKLuc reporter plasmid and luciferase gene expression quantitated. In all panels, results of triplicate transfections are shown +/− SD. Data is expressed as fold-activation experimental/control). […] The indicated amounts of SCP1 or mutant SCP1 expression plasmids were cotransfected in HEK293 cells along with Gal 4-VP16 expression and Gal 4-TK-Luc reporter plasmids and luciferase activity was quantitated. […] The indicated receptor expression plasmids were cotransfected with their cognate promoter-reporter plasmids with or without SCP1 or mutant SCP1 expression plasmids. Cells were treated or untreated with receptor-specific ligands as described infra. […] The indicated concentrations of SCP1 and mutant SCP1 expression plasmids were cotransfected with LMX1 and E47 expression plasmids and the rat insulin 1 promoter-luciferase reporter gene. Luciferase activity was measured as described.
(§3) Tissue Culture and Transfections: Human 293, COS7 and CV1 cells were grown at 37° C. in DMEM supplemented with 10% normal calf serum (BRL). Sub-confluent cells were transfected in 6 well tissue culture dishes using Effectene (Qiagen) according to the manufacturer's instructions. Reporter and activator plasmids (100 ng each) and Flag SCP1 (80 ng) or its mutant were used per well. […]

[3] = system: Gal 4-TK-Luc reporter stimulated by Gal 4-VP16; assay: Luciferase reporter assay, Gal 4-VP16 stimulated gene expression; format: cell-based, human; conditions: HEK293 cells
From the text: as §2, §3

[4] = system: T3 receptor activity on DR+4 TRE-TK-Luc reporter; assay: Luciferase reporter assay, ligand-activated T3 receptor; format: cell-based, human; conditions: 100 nM T3, DR+4 TRE-TK-Luc
From the text: as §2, §3

[5] = system: glucocorticoid receptor activity on GRE-TK-Luc construct; assay: Luciferase reporter assay, dexamethasone-stimulated glucocorticoid receptor; format: cell-based, human; conditions: 100 nM dexamethasone
From the text: as §2, §3

[6] = system: PPARγ receptor activity on PPARγ promoter response element; assay: Luciferase reporter assay, ligand-activated PPARγ receptor; format: cell-based, human
From the text: as §2, §3

[7] = system: P19 mouse embryonic stem cells; assay: Neuronal differentiation of P19 cells; format: cell-based; conditions: clonal P19 line, retinoic acid, selective medium
Experimental: P19 cells, C, differentiated GFP expressing P19 cells; D, differentiated SCP1-expressing P19 cells; F, differentiated REST/NRSF-expressing P19 cells. Numbers of NLC per field are shown. *p=0.001 compared to WT 19 cells; **p=0.008 compared to WT P19 cell using student's t-test.
P19 stably expressing REST/NRSF.
These cell lines were maintained in α-MEM/10%FBS with […] G418. To induce neuronal differentiation, P19 cells were allowed to aggregate in bacterial grade petri-dishes (Fisher) at a seeding density of 1×10^5cells/ml in the presence of 1×10^−6M all-trans retinoic acid. After 3 days of aggregation, cells were dissociated into single cells by 0.05% trypsin-0.53 mM EDTA (Gibco). Trypsin was removed by centrifugation and the cells were plated in 6 cm tissue culture dishes (Nunc). at a density of 1×10^5 cells/cm^2 in Neurobasal medium/N2 supplement (Invitrogen) in the presence or absence of 1 μg/ml fibronectin (Invitrogen). The cells were cultured for 5 days after which average cell numbers/field were determined. Cells were either lysed to prepare total RNA (Rneasy kit, Qiagen) or stained with TuJ1 antibody (Babco).
For immunostaining, cells were fixed for 10 mins with 4% paraformaldehyde. TuJ1 antibody was used at 1:2000 and secondary antibody used was FITC-conjuagated anti-mouse (1:3000).

B1: RAP74: RAP74 subunit of TFIIF (protein)
chain: T2 sequence (P35269 1-517 partner)
shift of the dose response curve for SCP1 catalyzed dephosphorylation of RNAP IIO to lower concentration (SCP1): approximately 10 fold
binding to GST-SCP1 (GST-SCP1): bound directly

B2: mutant SCP1: D96E, D98N phosphatase-inactive dominant negative mutant of SCP1 261, SEQ ID NO:10 (protein)
chain: T1 sequence (Q9GZU7 1-260 isoform Q9GZU7-2) with D95E, D97N
modifications: Drosophila
phosphatase activity [1]: inactive
CTD phosphatase activity on GST-CTDo and RNAP IIO (RNAP IIO): lacked activity on either substrate
increase of luciferase activity [2]: 1.5- to 6 fold
enhancement of Gal 4-VP16 stimulated activity [3]: about 2 fold
ligand-activated T3 receptor activity [4]: enhanced
dexamethasone-stimulated glucocorticoid receptor activity [5]: significantly enhanced
ligand-activated PPARγ receptor activity [6]: enhanced
increase of the extent of precursor differentiation into neurons [7]: > 2 fold

From patent US20070172470A1, “Phosphatase regulation of nucleic acid transcription” (The Regents of the University of California, priority 2003, published 2007)
